B1: VH SEQ ID NO 650 / VL SEQ ID NO 478 (antibody, IgG4, V domains shown)
VH: QVQLQESGPGLVKPSQTLSLTCTVSGYSISSDSAWSWIRQPPGKKLEWIGYIQYSGSTNYNPSLKSRVTISRDTSKNQFSLKLSSVTAADTAVYYCARSVNYYGNSFAVGPWGQGTLVTVSS
VL: EIVLTQSPATLSLSPGERATLSCRASQGVSDYLHWYQQKPGQAPRLLIKYASQPATGIPARFSGSGSGTDFTLTISSLEPEDFAVYYCQQGHSFPLTFGQGTKLEIK
notes: humanized 11F2; IgG4 S228P/kappa
B2: VH SEQ ID NO 514 / VL SEQ ID NO 342 (antibody, IgG4, V domains shown)
VH: B1 VH with K13E, Q16D, T23A, S30T, I70M, A89L, P111Y
VL: B1 VL with V29I, A51T, T69R, Q90N, Q100A, I106L
notes: as for B1
B3: VH SEQ ID NO 514 / VL SEQ ID NO 326 (antibody, IgG4, V domains shown)
VH: B1 VH with K13E, Q16D, T23A, S30T, I70M, A89L, P111Y
VL: B1 VL with V29I, Q42E, A51T, A84G, Q90N, Q100A, I106L
notes: as for B1
B4: VH SEQ ID NO 650 / VL SEQ ID NO 502 (antibody, IgG4, V domains shown)
VH: B1 VH
VL: B1 VL with A51T, Q90N
notes: as for B1
B5: VH SEQ ID NO 650 / VL SEQ ID NO 486 (antibody, IgG4, V domains shown)
VH: B1 VH
VL: B1 VL with A84G, Q90N
notes: as for B1
B6: VH SEQ ID NO 650 / VL SEQ ID NO 494 (antibody, IgG4, V domains shown)
VH: B1 VH
VL: B1 VL with F83V, Q90N
notes: as for B1
B7: mAb0013 (antibody, V domains shown)
VH: QIQLVQSGPELKKPGETVKISCKASGYTFTDYSIQWVKQAPGKGLKWMGWINTETGKPSYADDLKGRSAFSLETSGSTAYLQISNLKNEDMATYFCVRDDYYGREDYWGQGTTLTVSS
VL: DIVMTQSPSSLTVTAGEKVTVSCKSSQSLLNSGDQKNYLTWYQQKPGQPPKLLIYWASTRESGVPDRFTGSGSGTDFTLTISSVQAEDLAVYYCQNDFSYPYTFGGGTKLEIK
B8: mAb0701 (antibody, V domains shown)
VH: QIQLQQSGPELVKPGTSVKMACKASDYTFTDYYLHWVKQRPGQGLEWIGWIYPGSGNTKFNEKFKGKATLTVDTSSSTAYMHLSSLTSDDTAVYFCTRVLGRGAMDYWGQGTSVTVSS
VL: DIVLTQSPPSLAVSLGQRAIISCKASQSVSFAGTSLMYWYQQKPGQQPKVLMYRASNLEAGVPIRFSGSGSGTDFTLNIHPVEEDDVATYYCQQSREYPYTFGGGTKLEIK
B9: mAb7250 (antibody, V domains shown)
VH: EVQLVESGGGLVKPGGSLRLSCAASGFTFTSYSMSWVRQAPGKGLEWVSSISSRSSYICYADSVKGRFTISRDNAKNSLYLQMNSLRAEDTAVYYCAREGDTGSIGGDYMDVWGKGTTVTVSS
VL: not shown
B10: mAb0137(OA) (antibody, human IgG4 S228P, kappa)
heavy: not shown
light: EIVLTQSPATLSLSPGERATLSCRASQGISDYLHWYQQKPGEAPRLLIKYTSQPATGIPARFSGSGSGTDFTLTISSLEPEDVGVYYCQNGHSFPLTFGAGTKLELKRTVAAPSVFIFPPSDEQLKSGTASVVCLLNNFYPREAKVQWKVDNALQSGNSQESVTEQDSKDSTYSLSSTLTLSKADYEKHKVYACEVTHQGLSSPVTKSFNRGEC
chain: VESKYGPPCPPCPAPEFLGGPSVFLFPPKPKDTLMISRTPEVTCVVVDVSQEDPEVQFNWYVDGVEVHNAKTKPREEQFNSTYRVVSVLTVLHQDWLNGKEYKCKVSNKGLPSSIEKTISKAKGQPREPQVYTLPPSQEEMTKNQVSLTCLVKGFYPSDIAVEWESNGQPENNYKTTPPVLDSDGSFLLYSKLTVDKSRWQEGNVFSCSVMHEALHNHYTQKSLSLSLGK
B11: mAb0139(OA) (antibody, human IgG4 S228P, kappa)
heavy: not shown
light: B10 light
chain: B10 chain
B12: mAb0112 (antibody, human IgG4 S228P, kappa, V domains shown)
VH: B1 VH with Q1D, K13E, S30T, P41F, I49M, A89E, A108W, P111Y, L117S
VL: EIVLTQSPATLSLSPGERATLSCRASQGISDYLHWYQQKPGEAPRLLIKYTSQPATGIPARFSGSGSGTDFTLTISSLEPEDVGVYYCQNGHSFPLTFGAGTKLELKR
notes: humanized 11F2 variant, first round
B13: mAb0110 (antibody, human IgG4 S228P, kappa, V domains shown)
VH: B1 VH with Q1D, K45G, A108W, G110D
VL: DIVMTQSPATLSVTAGDRVSLSCRASQGISDYLHWYQQKSHESPRLLIKYTSQPVSGIPSRFSGSGSGSEFTLSINSVEPEDVGVYYCQNGHSFPLTFGAGTKLELKR
notes: as for B12
B14: mAb0120 (antibody, human IgG4 S228P, kappa, V domains shown)
VH: B1 VH with Q1D, K13E, P41F, I49M, A89E, P111Y, L117S
VL: B12 VL
notes: as for B12
B15: mAb0113 (antibody, human IgG4 S228P, kappa)
heavy: not shown
light: B10 light
notes: as for B12
B16: mAb0116 (antibody, human IgG4 S228P, kappa, V domains shown)
VH: B1 VH with Q1D, K13E, S30T, P41F, I49M, A89E, G110D, P111Y, L117S
VL: B12 VL
notes: as for B12
B17: mAb0115 (antibody, human IgG4 S228P, kappa, V domains shown)
VH: B1 VH with Q1D, K13E, S30T, I49M, A89E, P111Y, L117S
VL: B12 VL
notes: as for B12
B18: mAb0117 (antibody, human IgG4 S228P, kappa, V domains shown)
VH: B1 VH with Q1D, K13E, S30T, P41F, K45G, I49M, A89E, P111Y, L117S
VL: B12 VL
notes: as for B12
B19: mAb0121 (antibody, human IgG4 S228P, kappa, V domains shown)
VH: B1 VH with Q1D, K13E, S30T, P41F, I49M, A89E, L117S
VL: B12 VL
notes: as for B12
B20: mAb0118 (antibody, human IgG4 S228P, kappa, V domains shown)
VH: B1 VH with Q1D, K13E, S30T, P41F, A89E, P111Y, L117S
VL: B12 VL
notes: as for B12
B21: mAb0114 (antibody, human IgG4 S228P, kappa, V domains shown)
VH: B1 VH with Q1D, K13E, S30T, P41F, I49M, P111Y, L117S
VL: B12 VL
notes: as for B12
B22: mAb0119 (antibody, human IgG4 S228P, kappa)
heavy: not shown
light: B10 light
notes: as for B12
B23: mAb0109 (antibody, human IgG4 S228P, kappa, V domains shown)
VH: DVQLQESGPGLVEPSQSLSLTCTVTGYSITSDSAWSWIRQFPGNKLEWMGYIQYSGSTNYNPSLKSRISVTRDTSKNQFFLRLSSVTAEDTATYYCTRSVNYYGNSFAVGYWGQGTSVTVSS
VL: B12 VL with N90S
notes: as for B12

Positions count from the first letter of the chain named. In names and notes the source's numbering stands.

The first assay concerns the target T1, recombinant human activated Factor VII (FVIIa) (human, UniProt P08709 61-212; P08709 213-466, ten glutamate residues of the Gla domain may be gamma-carboxylated).
T1 construct: chains tethered by a disulfide bond; also called Factor VIIa; rFVIIa
T1 sequence 1: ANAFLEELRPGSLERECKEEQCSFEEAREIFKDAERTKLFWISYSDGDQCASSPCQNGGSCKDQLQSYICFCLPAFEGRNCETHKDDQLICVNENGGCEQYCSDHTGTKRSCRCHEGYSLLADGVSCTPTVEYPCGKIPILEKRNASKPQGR
T1 sequence 2: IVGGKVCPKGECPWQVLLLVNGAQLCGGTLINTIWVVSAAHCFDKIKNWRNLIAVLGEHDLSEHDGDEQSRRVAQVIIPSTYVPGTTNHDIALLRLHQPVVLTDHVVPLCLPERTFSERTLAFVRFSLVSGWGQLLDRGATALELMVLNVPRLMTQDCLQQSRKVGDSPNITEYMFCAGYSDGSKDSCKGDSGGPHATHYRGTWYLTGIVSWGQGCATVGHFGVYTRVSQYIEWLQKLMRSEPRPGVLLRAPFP
Nature of the assay: BLI (Fortebio).
Turning to B1, the Kd stood at 3 nM.
The same measure, in the same setting: the result for B2 reads 1.3 nM.
The same measure, in the same setting: the result for B3 reads 0.75 nM.
As to B4, the Kd amounted to 1.3 nM.
On the same count and under the same terms, the result for B5 reads 1.3 nM; that for B6, 1.6 nM.

The target of the next assay is T2, recombinant human activated Factor VII (FVIIa) (human, UniProt P08709 61-212; P08709 213-466, Gla domain: ten glutamate residues may be gamma-carboxylated).
T2 sequence 1: T1 sequence 1
T2 sequence 2: T1 sequence 2
Put plainly: cell-based or functional assay.
Regarding B7, the “AT inhibition (kinh %)” value is 747% and the “TGT activity (% FVIIa)” value turned out to be 128 % FVIIa.
On the same counts, the results for B8 are 26% and 88 % FVIIa.
Taken in the same sequence, the figures for B9 were 23% and 91 % FVIIa.

For the next assay, the target named is T1, recombinant human activated Factor VII …. Put plainly: cell-based or functional assay.
Take B10: the “AT inhibition (kinh %)” value is 105% and the “TGT activity (%% FVIIa)” value stood at 102%.
For B11, the “AT inhibition (kinh %)” value was found to be 110% and the “TGT activity (%% FVIIa)” value was 100%.

A further assay deals with T2, recombinant human activated Factor VII …. Nature of the assay: Bio-Layer Interferometry (Fortebio), antibody on anti-human tips, FVIIa 25-200 nM. On the procedure: All steps were performed in running buffer (20 mM HEPES buffer (pH 7.4), 150 mM NaCl, 5 mM CaCl2, 0.03% Tween 20, 1 mg/ml IgG-free BSA) at […] Antibodies were captured on anti-human tips (AHC, Fortebio) for 3 min at a concentration of 10 ug/ml. This was followed by a 3 min incubation to establish a baseline. Following this, association was monitored for 3 min using four different concentrations of VIIa (25 nm, 50 nM, 100 nM, and 200 nM), followed by a 3 mi dissociation. Sensorgrams were analysed using Fortebio data analysis software.
Take B12: the Kd was determined as 13 nM.
The same measure, in the same setting: the result for B13 reads 42000 nM; that for B14, 1.7 nM.
On the same count and under the same terms, the result for B15 reads 1.8 nM.
On the same count and under the same terms, the result for B16 reads 32 nM; that for B17, 1.5 nM.
On to B18, for which the Kd stood at 1.4 nM.
On the same count and under the same terms, for B19 the value was 2 nM; for B20, 1.7 nM; for B21, 1.5 nM.
Still for that read-out and setting: for B22 the value was 1 nM; for B23, 11 nM.

Source of the values: patent US20220064329A1 (Novo Nordisk, published 2022).
